From patent publication US20240092836A1 (GENEFRONTIER, published 2024)
Bridges are numbered along the chain shown (N, C = ends). Where no end group is shown, it is not given here.

T1: Orencia
T1 sequence (chain, INN chains, looked up, looked up): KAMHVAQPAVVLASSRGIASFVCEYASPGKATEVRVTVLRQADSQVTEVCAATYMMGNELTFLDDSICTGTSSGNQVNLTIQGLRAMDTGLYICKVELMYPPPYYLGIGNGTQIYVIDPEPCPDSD

T2: CTLA-4 expressed on the cell surface of CHO cells (Homo sapiens (Human), UniProt P16410 36-223)
T2 construct: also called CTLA-4 with its natural structure
T2 sequence: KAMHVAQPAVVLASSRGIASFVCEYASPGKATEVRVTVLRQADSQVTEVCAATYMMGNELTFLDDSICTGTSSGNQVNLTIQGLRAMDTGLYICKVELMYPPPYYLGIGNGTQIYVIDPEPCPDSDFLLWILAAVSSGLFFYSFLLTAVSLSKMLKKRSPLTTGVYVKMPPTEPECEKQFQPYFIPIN

T3: CTLA4 of the CTLA4:B7-1[Biotinylated] Inhibitor Screening Assay Kit (BPS Bioscience) (human, UniProt P16410 37-162, limits assumed)
T3 construct: Kit protein
T3 sequence: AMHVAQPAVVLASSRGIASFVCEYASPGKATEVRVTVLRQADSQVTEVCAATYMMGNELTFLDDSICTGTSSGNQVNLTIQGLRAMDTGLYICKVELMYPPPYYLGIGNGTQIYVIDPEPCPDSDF

B1: H12SSI-Ctla4-3-02 (MBP fusion) (peptide, not shown: large carriers; small tags and cut ends)
chain: GGCMHPFLLVVSHHFCGG
notes: MBP fusion; also called original clone; Original
B2: No. #19 synthetic peptide used in FACS (peptide)
peptide: CMHPFLPIVSHHFCER
modifications: disulfide 1-14 (inferred); also: form used in FACS not given here: biotinylated or N-terminal Gly
B3: Gly-clone #19: GCMHPFLPIVSHHFCER (peptide)
peptide: GCMHPFLPIVSHHFCER
modifications: disulfide 2-15 (inferred)
notes: chemically synthesised, glycine added to the N-terminus; also called synthesized peptide (Clone No. #19)

Target: T1, Orencia
Assay: ELISA, signal on Orencia over SA
Method: (§1) 10 μL of E. coli cultured medium was added with 90 μL of PBS and 40 μL of lysis reagent (20 μL BugBuster Protein Extraction Reagent (Novagen), 20 μL Lysozyme solution 2.5 mg/mL) to lyse E. coli cells for 1 hour at room temperature. […] In parallel, antigen protein was immobilized overnight at 4° C. in 384-well plates at 100 ng/20 μL per well, and each well was washed twice with 100 μL/well of TBST, added with 100 μL/well of 5% skim milk solution (TBST) for blocking for 1 hour at room temperature, and washed twice with 100 μL/well of TBST to obtain antigen-immobilized plates. 20 μL/well of blocking-treated E. coli extract was added to the antigen-immobilized plates and gently stirred at room temperature using a plate mixer. […] The plates were washed 5 times with 100 μL/well of TBST, and binding of cyclic peptides to the antigen was detected by 20 μL/well of chromogenic substrate (0.4 mg/mL 3,3′,5,5′-Tetramethyl-benzidine, 0.01% hydrogen peroxide). After 15 minutes of reaction at room temperature, the reaction was stopped with 20 μL/well of 2N HCl, and absorbance at 450 nm was measured using a plate reader (infinite F200: TECAN) (Table 5).
(§2) An Error-Prone Library was prepared based on H12SSI-Ctla4-3-02, and Affinity Maturation selection experiments were performed. The cyclic peptide genes obtained in each round were subcloned, 94 single colonies were cultured in 96-well plates, and the CTLA-4 binding activity of each MBP-fused cyclic peptide was examined by ELISA.

Going from GGCMHPFLPILSHHFCAG (peptide, not shown: large carriers; small tags and cut ends, MBP fusion; also called #21) [C4-302mat-3-1-32] to GDCKHPYLLTVSHHFCGR (peptide, not shown: large carriers; small tags and cut ends, MBP fusion; also called #42) [C4-302mat-3-1-25], the “S/N(SA)” value falls from 11.4 to 4.3.

Compared with GGCMHPFLKIASHHFCGG (peptide, not shown: large carriers; small tags and cut ends, MBP fusion; also called #36) [C4-302mat-3-1-8], GGCMHPFLRVVSHHFCGR (peptide, not shown: large carriers; small tags and cut ends, MBP fusion; also called #33) [C4-302mat-3-1-14] is higher in “S/N(SA)” value: 8.2 for the first, 15.5 for the second.

Going from GGCMHPFLPVVSHHFCGG (peptide, not shown: large carriers; small tags and cut ends, MBP fusion) [C4-302mat-1-1-24] to GGCKHPFLPVVSHHFCGG (peptide, not shown: large carriers; small tags and cut ends, MBP fusion; also called #13) [C4-302mat-3-100-9], the “S/N(SA)” value falls from 14.7 to 14.4.

First: GGCMHPFLQVVSHHFCGG (peptide, not shown: large carriers; small tags and cut ends, MBP fusion; also called #27) [C4-302mat-2-100-4]
Second: GGCRHPFLPIVSRHFCRG (peptide, not shown: large carriers; small tags and cut ends, MBP fusion; also called #11) [C4-302mat-3-1-45]
The “S/N(SA)” value of the first is lower: 9.3 for the first, 11.2 for the second.

First: GGCMHPFLPVASHHFCGG (peptide, not shown: large carriers; small tags and cut ends, MBP fusion) [C4-302mat-1-1-35]
Second: GGCKHPFLLIVSHHFCGR (peptide, not shown: large carriers; small tags and cut ends, MBP fusion; also called #45) [C4-302mat-3-100-39]
The “S/N(SA)” value of the first is higher: 11.2 for the first, 2.3 for the second.

Going from GGCKHPFLRVVSHHFCRR (peptide, not shown: large carriers; small tags and cut ends, MBP fusion; also called #34) [C4-302mat-2-1-12] to GGCMHPFLRIVSQHFCRR (peptide, not shown: large carriers; small tags and cut ends, MBP fusion; also called #35) [C4-302mat-2-1-24], the “S/N(SA)” value falls from 8.5 to 2.4.

First: GGCMHPFLQVASHHFCGG (peptide, not shown: large carriers; small tags and cut ends, MBP fusion) [C4-302mat-2-1-40]
Second: GGCIHPFLQVVSHHFCGG (peptide, not shown: large carriers; small tags and cut ends, MBP fusion; also called #28) [C4-302mat-1-1-21]
The “S/N(SA)” value of the first is higher: 6.9 for the first, 2.7 for the second.

Going from GGCKHPYLPVASHHFCRG (peptide, not shown: large carriers; small tags and cut ends, MBP fusion; also called #14) [C4-302mat-3-1-10] to GGCMHPFLQTVSHHFCGG (peptide, not shown: large carriers; small tags and cut ends, MBP fusion; also called #22) [C4-302mat-3-1-35], the “S/N(SA)” value falls from 10.3 to 5.3.

First: GGCMHPYLLVVSHHFCGR (peptide, not shown: large carriers; small tags and cut ends, MBP fusion; also called #40) [C4-302mat-2-100-24]
Second: B1
The “S/N(SA)” value of the first is lower: 4 for the first, 4.3 for the second.

Going from GGCMHPYLQVVSHHFCGR (peptide, not shown: large carriers; small tags and cut ends, MBP fusion) [C4-302mat-3-1-2] to GGCMHPFLRVVSHHFCGG (peptide, not shown: large carriers; small tags and cut ends, MBP fusion; also called #32) [C4-302mat-1-1-37], the “S/N(SA)” value falls from 21.9 to 14.2.

Compared with GGCMHPYLLVVSRHFCGR (peptide, not shown: large carriers; small tags and cut ends, MBP fusion; also called #41) [C4-302mat-3-1-15], GGCMHPFLPVTSHHFCGG (peptide, not shown: large carriers; small tags and cut ends, MBP fusion; also called #17) [C4-302mat-2-1-3] is higher in “S/N(SA)” value: 5.4 for the first, 14.8 for the second.

Target: T1, Orencia
Assay: ELISA, MBP fusion in E. coli lysate on Orencia
Method: as §1, §2

Compared with GGCMHPFLPILSHHFCAG (peptide, not shown: large carriers; small tags and cut ends, MBP fusion; also called #21) [C4-302mat-3-1-32], GDCKHPYLLTVSHHFCGR (peptide, not shown: large carriers; small tags and cut ends, MBP fusion; also called #42) [C4-302mat-3-1-25] is lower in “ELISA A450” value: 0.656 for the first, 0.264 for the second.

First: GGCMHPFLKIASHHFCGG (peptide, not shown: large carriers; small tags and cut ends, MBP fusion; also called #36) [C4-302mat-3-1-8]
Second: GGCMHPFLRVVSHHFCGR (peptide, not shown: large carriers; small tags and cut ends, MBP fusion; also called #33) [C4-302mat-3-1-14]
The “ELISA A450” value of the first is lower: 0.555 for the first, 0.985 for the second.

Going from GGCMHPFLPVVSHHFCGG (peptide, not shown: large carriers; small tags and cut ends, MBP fusion) [C4-302mat-1-1-24] to GGCKHPFLPVVSHHFCGG (peptide, not shown: large carriers; small tags and cut ends, MBP fusion; also called #13) [C4-302mat-3-100-9], the “ELISA A450” value falls from 0.78 to 0.779.

Compared with GGCMHPFLQVVSHHFCGG (peptide, not shown: large carriers; small tags and cut ends, MBP fusion; also called #27) [C4-302mat-2-100-4], GGCRHPFLPIVSRHFCRG (peptide, not shown: large carriers; small tags and cut ends, MBP fusion; also called #11) [C4-302mat-3-1-45] is higher in “ELISA A450” value: 0.545 for the first, 0.689 for the second.

Compared with GGCMHPFLPVASHHFCGG (peptide, not shown: large carriers; small tags and cut ends, MBP fusion) [C4-302mat-1-1-35], GGCKHPFLLIVSHHFCGR (peptide, not shown: large carriers; small tags and cut ends, MBP fusion; also called #45) [C4-302mat-3-100-39] is lower in “ELISA A450” value: 0.534 for the first, 0.136 for the second.

Compared with GGCKHPFLRVVSHHFCRR (peptide, not shown: large carriers; small tags and cut ends, MBP fusion; also called #34) [C4-302mat-2-1-12], GGCMHPFLRIVSQHFCRR (peptide, not shown: large carriers; small tags and cut ends, MBP fusion; also called #35) [C4-302mat-2-1-24] is lower in “ELISA A450” value: 0.51 for the first, 0.14 for the second.

Going from GGCMHPFLQVASHHFCGG (peptide, not shown: large carriers; small tags and cut ends, MBP fusion) [C4-302mat-2-1-40] to GGCIHPFLQVVSHHFCGG (peptide, not shown: large carriers; small tags and cut ends, MBP fusion; also called #28) [C4-302mat-1-1-21], the “ELISA A450” value falls from 0.366 to 0.155.

Compared with GGCKHPYLPVASHHFCRG (peptide, not shown: large carriers; small tags and cut ends, MBP fusion; also called #14) [C4-302mat-3-1-10], GGCMHPFLQTVSHHFCGG (peptide, not shown: large carriers; small tags and cut ends, MBP fusion; also called #22) [C4-302mat-3-1-35] is lower in “ELISA A450” value: 0.586 for the first, 0.299 for the second.

First: GGCMHPYLLVVSHHFCGR (peptide, not shown: large carriers; small tags and cut ends, MBP fusion; also called #40) [C4-302mat-2-100-24]
Second: B1
The “ELISA A450” value of the first is lower: 0.227 for the first, 0.228 for the second.

Compared with GGCMHPYLQVVSHHFCGR (peptide, not shown: large carriers; small tags and cut ends, MBP fusion) [C4-302mat-3-1-2], GGCMHPFLRVVSHHFCGG (peptide, not shown: large carriers; small tags and cut ends, MBP fusion; also called #32) [C4-302mat-1-1-37] is lower in “ELISA A450” value: 1.45 for the first, 0.665 for the second.

Going from GGCMHPYLLVVSRHFCGR (peptide, not shown: large carriers; small tags and cut ends, MBP fusion; also called #41) [C4-302mat-3-1-15] to GGCMHPFLPVTSHHFCGG (peptide, not shown: large carriers; small tags and cut ends, MBP fusion; also called #17) [C4-302mat-2-1-3], the “ELISA A450” value rises from 0.351 to 0.802.

Target: T2, CTLA-4 expressed on the cell surface of …
Assay: FACS on CHO cells expressing CTLA-4, synthetic peptide

Binder B2 has an EC50 of 0.47 µM.

Target: T3, CTLA4 of the CTLA4:B7-1[Biotinylated] …
Assay: CTLA4:B7-1[Biotinylated] Inhibitor Screening Assay Kit, synthetic peptide against biotinylated B7-1
Text: Inhibitor Screening Assay Kit (BPS Biosciences) as described above.

With B3 the IC50 was 11.5 µM.
